According to IntAct's records for PubMed 23803857:

B1: C-type lectin domain family 2 member A (Homo sapiens), Q6UVW9 (parent)
chain: MINPELRDGRADGFIHRIVPKLIQNWKIGLMCFLSIIITTVCIIMIATWSKHAKPVACSGDWLGVRDKCFYFSDDTRNWTASKIFCSLQKAELAQIDTQEDMEFLKRYAGTDMHWIGLSRKQGDSWKWTNGTTFNGWFEIIGNGSFAFLSADGVHSSRGFIDIKWICSKPKYFL
partner: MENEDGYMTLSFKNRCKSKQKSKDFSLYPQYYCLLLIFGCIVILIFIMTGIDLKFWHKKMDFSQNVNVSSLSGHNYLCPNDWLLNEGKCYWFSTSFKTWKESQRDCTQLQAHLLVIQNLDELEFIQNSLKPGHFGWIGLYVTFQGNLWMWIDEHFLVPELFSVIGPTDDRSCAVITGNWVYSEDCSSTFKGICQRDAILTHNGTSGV

Variants of: B1
Details: with klrf2_human KLRF2, D3W0D1

Row | Variant | effect of a mutation on the interaction
1 | MINPELRDGRADGFIHRIVPKLIQNWKIGLMCFLSIIITTVCIIMIATWSKHAKPVACSGDWLGVRDKCFYFSDDTRNWTASKIFCSLQKAELAQIDTQEDMEFLKRYAGTDMHWIGLSRKQGDSWKWTNGTTFNGWFEIIGNGSFAALSADGVHSSRGFIDIKWICSKPKYFL | decreasing interaction strength
2 | MINPELRDGRADGFIHRIVPKLIQNWKIGLMCFLSIIITTVCIIMIATWSKHAKPVACSGDWLGVRDKCFYFSDDTRNWTASKIFCSLQKAELAQIDTQEDMEFLKRYAGTDMHWIGLSRKQGDSWKWTNGTTFNGWFEIIGNGSFAFLSADGVASSRGFIDIKWICSKPKYFL | decreasing interaction strength
3 | MINPELRDGRADGFIHRIVPKLIQNWKIGLMCFLSIIITTVCIIMIATWSKHAKPVACSGDWLGVRDKCFYFSDDTRNWTASKIFCSLQKAELAQIDTQEDMEFLKRYAGTDMHWIGLSRKQGDSWKWTNGTTFNGWFEIIGNGSFAFLSADGVHSAAGFIDIKWICSKPKYFL | decreasing interaction strength
4 | MINPELRDGRADGFIHRIVPKLIQNWKIGLMCFLSIIITTVCIIMIATWSKHAKPVACSGDWLGVRDKCFYFSDDTRNWTASKIFCSLQKAELAQIDTQEDMEFLKRYAGTDMHWIGLSRKQGDSWKWTNGTTFNGWFEIIGNGSFAFLSAAGVHSSRGFIDIKWICSKPKYFL | with no effect
5 | MINPELRDGRADGFIHRIVPKLIQNWKIGLMCFLSIIITTVCIIMIATWSKHAKPVACSGDWLGVRDKCFYFSDDTRNWTASKIFCSLQKAELAQIDTQEDMEFLKRYAGAAAHWIGLSRKQGDSWKWTNGTTFNGWFEIIGNGSFAFLSADGVHSSRGFIDIKWICSKPKYFL | with no effect

Results, then the variant that gave them:

Row | effect of a mutation on the interaction | Variant
6 | decreasing interaction strength | MINPELRDGRADGFIHRIVPKLIQNWKIGLMCFLSIIITTVCIIMIATWSKHAKPVACSGDWLGVRDKCFYFSDDTRNWTASKIFCSLQKAELAQIDTQEDMEFLKRYAGTDMHWIGLSRKQGDSWKWTNGTTFNGWFEIIGNGSFAFLSADGVHSSRGAADIKWICSKPKYFL
7 | decreasing interaction strength | MINPELRDGRADGFIHRIVPKLIQNWKIGLMCFLSIIITTVCIIMIATWSKHAKPVACSGDWLGVRDKCFYFSDDTRNWTASKIFCSLQKAELAQIDTQEDMEFLKRYAGTDMHWIGLSRKQGDSWKWTNGTTFNGWFEIIGNGSFAFLSADGVHSSRGFIAIKWICSKPKYFL
